These results are taken from patent US20040053347A1.

The assay concerns the target BRCA2 protein, endogenous in cell extracts (human) (UniProt P51587). The experiment in a line: estimate from co-immunoprecipitation with anti-BRCA2 antibodies.
Sequence of UniProt P51587 (P51587 whole entry): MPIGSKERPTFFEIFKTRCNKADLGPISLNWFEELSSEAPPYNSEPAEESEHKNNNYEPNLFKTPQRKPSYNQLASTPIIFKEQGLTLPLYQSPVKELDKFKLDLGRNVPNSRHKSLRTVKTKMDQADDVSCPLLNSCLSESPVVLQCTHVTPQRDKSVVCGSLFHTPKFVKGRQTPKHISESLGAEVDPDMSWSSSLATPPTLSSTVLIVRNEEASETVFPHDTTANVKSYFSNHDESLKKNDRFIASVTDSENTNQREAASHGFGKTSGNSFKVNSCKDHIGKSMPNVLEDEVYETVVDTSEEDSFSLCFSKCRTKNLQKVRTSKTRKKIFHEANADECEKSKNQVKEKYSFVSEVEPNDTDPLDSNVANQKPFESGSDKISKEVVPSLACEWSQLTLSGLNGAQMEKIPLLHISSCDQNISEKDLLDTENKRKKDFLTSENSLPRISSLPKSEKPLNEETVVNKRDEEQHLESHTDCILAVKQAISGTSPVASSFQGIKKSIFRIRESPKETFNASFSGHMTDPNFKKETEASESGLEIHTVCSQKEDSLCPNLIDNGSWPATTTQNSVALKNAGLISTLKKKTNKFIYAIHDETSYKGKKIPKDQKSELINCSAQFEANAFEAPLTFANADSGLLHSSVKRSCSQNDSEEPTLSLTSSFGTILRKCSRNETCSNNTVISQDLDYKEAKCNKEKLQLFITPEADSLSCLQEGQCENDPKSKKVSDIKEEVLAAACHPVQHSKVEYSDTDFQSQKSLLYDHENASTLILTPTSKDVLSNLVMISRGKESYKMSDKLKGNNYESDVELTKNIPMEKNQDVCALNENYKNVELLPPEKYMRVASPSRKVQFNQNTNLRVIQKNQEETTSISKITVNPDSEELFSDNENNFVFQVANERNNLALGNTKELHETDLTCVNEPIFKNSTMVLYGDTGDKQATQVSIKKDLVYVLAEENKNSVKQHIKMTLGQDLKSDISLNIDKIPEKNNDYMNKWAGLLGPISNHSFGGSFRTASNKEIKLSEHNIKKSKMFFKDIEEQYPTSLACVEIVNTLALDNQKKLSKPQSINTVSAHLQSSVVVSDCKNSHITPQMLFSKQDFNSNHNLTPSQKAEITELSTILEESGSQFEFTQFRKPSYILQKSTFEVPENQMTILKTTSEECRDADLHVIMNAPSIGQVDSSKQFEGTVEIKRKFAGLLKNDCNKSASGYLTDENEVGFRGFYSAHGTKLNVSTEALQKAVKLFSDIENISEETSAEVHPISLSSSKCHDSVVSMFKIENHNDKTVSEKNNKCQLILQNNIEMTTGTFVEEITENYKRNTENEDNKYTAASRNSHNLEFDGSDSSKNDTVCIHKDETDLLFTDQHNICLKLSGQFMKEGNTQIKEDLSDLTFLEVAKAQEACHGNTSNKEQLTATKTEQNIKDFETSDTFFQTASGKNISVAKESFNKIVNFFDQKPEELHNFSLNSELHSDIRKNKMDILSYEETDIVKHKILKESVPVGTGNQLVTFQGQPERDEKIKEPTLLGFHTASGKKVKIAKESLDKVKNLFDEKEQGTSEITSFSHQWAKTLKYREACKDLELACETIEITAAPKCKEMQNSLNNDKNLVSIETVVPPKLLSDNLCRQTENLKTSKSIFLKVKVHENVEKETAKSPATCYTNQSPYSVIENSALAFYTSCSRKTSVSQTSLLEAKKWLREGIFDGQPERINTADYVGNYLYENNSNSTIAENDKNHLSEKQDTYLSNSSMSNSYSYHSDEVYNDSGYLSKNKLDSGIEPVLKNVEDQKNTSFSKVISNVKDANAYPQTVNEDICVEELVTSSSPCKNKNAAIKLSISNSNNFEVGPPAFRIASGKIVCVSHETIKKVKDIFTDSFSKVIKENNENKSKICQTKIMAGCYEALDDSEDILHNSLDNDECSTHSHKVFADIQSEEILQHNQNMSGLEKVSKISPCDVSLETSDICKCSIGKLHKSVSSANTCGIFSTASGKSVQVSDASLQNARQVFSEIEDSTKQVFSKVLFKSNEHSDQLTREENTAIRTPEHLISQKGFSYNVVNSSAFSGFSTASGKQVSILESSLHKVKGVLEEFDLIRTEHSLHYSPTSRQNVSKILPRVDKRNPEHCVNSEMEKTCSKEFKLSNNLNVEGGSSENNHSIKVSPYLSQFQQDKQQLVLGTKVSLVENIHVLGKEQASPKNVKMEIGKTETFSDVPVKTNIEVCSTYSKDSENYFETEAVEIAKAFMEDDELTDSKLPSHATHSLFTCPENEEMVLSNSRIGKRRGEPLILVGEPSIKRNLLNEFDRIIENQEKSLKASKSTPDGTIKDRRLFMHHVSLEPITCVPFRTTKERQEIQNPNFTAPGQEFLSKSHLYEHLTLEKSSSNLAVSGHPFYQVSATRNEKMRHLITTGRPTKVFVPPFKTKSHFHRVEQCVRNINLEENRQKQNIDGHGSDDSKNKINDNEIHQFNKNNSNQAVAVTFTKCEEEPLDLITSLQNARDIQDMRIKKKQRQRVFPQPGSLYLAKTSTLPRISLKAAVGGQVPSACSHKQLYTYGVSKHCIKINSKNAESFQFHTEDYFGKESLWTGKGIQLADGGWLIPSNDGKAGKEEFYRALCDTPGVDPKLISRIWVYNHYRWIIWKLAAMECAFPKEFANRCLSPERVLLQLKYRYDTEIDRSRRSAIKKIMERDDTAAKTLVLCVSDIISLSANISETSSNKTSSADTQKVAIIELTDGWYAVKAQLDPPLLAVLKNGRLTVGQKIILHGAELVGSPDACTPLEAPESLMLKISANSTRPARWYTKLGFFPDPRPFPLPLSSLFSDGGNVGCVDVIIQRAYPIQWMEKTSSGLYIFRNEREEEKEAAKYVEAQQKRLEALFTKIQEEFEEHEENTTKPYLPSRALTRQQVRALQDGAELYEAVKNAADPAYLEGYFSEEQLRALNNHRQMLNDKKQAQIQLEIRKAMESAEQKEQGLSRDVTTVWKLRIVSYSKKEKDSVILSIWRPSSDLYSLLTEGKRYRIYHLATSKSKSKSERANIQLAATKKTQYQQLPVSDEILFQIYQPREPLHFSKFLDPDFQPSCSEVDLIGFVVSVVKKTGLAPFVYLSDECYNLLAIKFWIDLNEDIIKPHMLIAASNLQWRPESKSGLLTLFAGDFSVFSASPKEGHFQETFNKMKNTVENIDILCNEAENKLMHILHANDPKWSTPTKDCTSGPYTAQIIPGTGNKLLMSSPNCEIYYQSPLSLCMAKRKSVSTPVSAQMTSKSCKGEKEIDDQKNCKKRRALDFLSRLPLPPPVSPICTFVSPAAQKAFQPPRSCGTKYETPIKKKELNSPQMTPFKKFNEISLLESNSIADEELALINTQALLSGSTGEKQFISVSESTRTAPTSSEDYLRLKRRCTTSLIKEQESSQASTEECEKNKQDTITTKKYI

Take “BRAF35, endogenous protein in HeLa or MCF7 cell extracts”: the percent of endogenous BRAF35 present in the BRCA2 complex was 2 to 4%.
